Reference: patent publication US20220281965A1 (AstraZeneca / MedImmune, published 2022)
Where a chain is given by its changes, count along the chain named.

How the values were obtained:
[1] = molecular target: T1, mature recombinant mouse GDF-15 with Flag and His tags (mouse, UniProt Q9Z0J7 189-303); assay: SPR Biacore 8K, biotinylated mouse GDF-15 on streptavidin C1 chip, Fab as analyte
T1 construct: also called Flag tagged mouse GDF-15; not shown: FLAG and poly-His tags immediately C-terminal to the furin cleavage site (N-terminal on the mature protein)
T1 sequence: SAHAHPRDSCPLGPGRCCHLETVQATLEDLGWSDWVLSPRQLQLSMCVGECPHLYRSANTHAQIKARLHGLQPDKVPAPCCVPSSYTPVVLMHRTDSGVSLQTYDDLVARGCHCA
Protocol: (§1) The experiments were carried out using mature recombinant human GDF-15, human GDF-15 H202D variant, mouse GDF-15, and cynomolgus GDF-15 with an N-terminal Flag and His tag. All species were chemically biotinylated using EZ link Sulfo-NHS-LC-Biotin (Thermo).
(§2) Streptavidin was covalently immobilized to a C1 chip surface using standard amine coupling techniques at a concentration of 4 μg/ml in 10 mM Sodium acetate pH 4.5. Recombinant biotinylated GDF-15 species were titrated onto the streptavidin chip surface in HBS-EP+ buffer to enable Fab binding.
(§3) Multiple buffer-only injections were made under the same conditions to allow for double reference subtraction of the final sensorgram sets, which were analyzed using Biacore 8K Evaluation Software. The chip surface was fully regenerated with pulses of 50 mM NaOH.

[2] = molecular target: T2, mature recombinant cynomolgus GDF-15 with an N-terminal Flag and His tag, biotinylated (cynomolgus, UniProt G7PWZ3 197-308, chemically biotinylated with EZ link Sulfo-NHS-LC-Biotin, sites not stated); assay: SPR Biacore 8K, 25 C, biotinylated GDF-15 on streptavidin C1 chip, Fab as analyte
T2 construct: not shown: N-terminal Flag and His tags
T2 sequence: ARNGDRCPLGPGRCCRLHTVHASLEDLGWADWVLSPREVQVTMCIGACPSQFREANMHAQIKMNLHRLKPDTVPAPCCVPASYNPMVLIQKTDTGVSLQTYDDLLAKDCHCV
Protocol: as §1, §2, §3

[3] = molecular target: T3, mature recombinant human GDF-15 with an N-terminal Flag and His tag, biotinylated (human, UniProt Q99988 197-308, chemically biotinylated with EZ link Sulfo-NHS-LC-Biotin, sites not stated); assay: as above
T3 construct: not shown: N-terminal Flag and His tags
T3 sequence: T2 sequence with R6H, H21R, E54A, M63T, N64S, V112I
Protocol: as §1, §2, §3

[4] = molecular target: T4, mature recombinant human GDF-15 H202D variant with an N-terminal Flag and His tag, biotinylated (human, UniProt Q99988 197-308, chemically biotinylated with EZ link Sulfo-NHS-LC-Biotin, sites not stated); assay: as above
T4 construct: also called Human H202D; not shown: N-terminal Flag and His tags
T4 chain: T2 sequence with R6D, H21R, E54A, M63T, N64S, V112I
Protocol: as §1, §2, §3

B1: AB1170247 Fab (Fab, V domains shown)
VH: QVQLVQSGSELKKPGASVKVSCKASGYTFTSYDINWVRQAPGQGLEWIGWIYPRDGISKYNEKFKGRATLTVDTSASTAYMELSSLRSEDTAVYYCAGTYDPAYFDYWGQGTTVTVSS
VL: EIVLTQSPATLSVSPGERATLSCRASQSISYYLHWYQQKPGQAPRLLIKYASQSISGVPDRFSGSGSGTDFTLKISRVEAEDFGVYYCQQSNSWPYTFGGGTKVEIK
notes: Fab of the humanized antibody, expressed as in Spooner et al. 2015
Q: Which results are given for B1?
A: binding result [1]: no binding; Kd [2]: 15 nM; koff [2]: 0.0686 s⁻¹; kon [2]: 4.58e+06 M⁻¹ s⁻¹; Kd [3]: 9.24 nM; koff [3]: 0.0386 s⁻¹; kon [3]: 4.18e+06 M⁻¹ s⁻¹; Kd [4]: 9.5 nM; koff [4]: 0.0385 s⁻¹; kon [4]: 4.06e+06 M⁻¹ s⁻¹
